According to the supplement of paper PMC10126150:
± gives the standard deviation of the averaged measurements.

Test system: ATP
Test: switch fluorescence ratio, 500 uM ATP over buffer (Cy3 cluster intensity, sum of 5 cycles each) (fold (ratio)); higher = stronger signal-on switching upon ATP binding; sequences stand for … in TCGTCGGCAGCGTCAGATGTGTATAAGAGACAGTTTTTTTTTTTTTTTTTTTTTTTTT…TC
Conditions: aptamer strand: ATP DNA aptamer (quencher-CACCTGGGGGAGTATTGCGGAGGAAGG + anchor), 100 nM annealed; ATP concentration: 500 uM
Outline: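 Between each of five buffer/ATP cycles, the flow-cell was stripped with NaOH and re-annealed. Each cycle imaged Cy3-labelled switching-strand clusters, annealed to 100 nM quencher-labelled ATP aptamer on a modified Illumina MiSeq flow-cell, first in selection buffer and then after 15 min with 500 uM ATP at 22 °C. The fluorescence ratio is summed target-cycle over summed buffer-cycle Cy3 intensity per cluster, averaged per switch-domain sequence, with clusters outside 100-1000 RFU excluded.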
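Also: ATP exposure 15 min at 22 °C before imaging.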

Sequence	switch fluorescence ratio
CGTCGGAGTG	1.01 ± 0.022
CGTCGGGAAT	1.35 ± 0.051
CGTCGGGGCA	0.964 ± 0.074
CGTCGTAAAA	0.999 ± 0.036
CGTCTAAGGG	1.06 ± 0.13
CGTCTGGGAT	1.01 ± 0.037
CGTCTGTCTG	0.976 ± 0.033
CGTCTTAAAG	1 ± 0.036
CGTCTTAGTT	0.993 ± 0.015
CGTGAAAATC	0.9987 ± 0.0075
CGTGACAGAG	0.992 ± 0.02
CGTGAGAAGT	0.9923 ± 0.0041
CGTGAGAATG	0.997 ± 0.026
CGTGAGGGGG	1.01 ± 0.012
CGTGAGGGGT	0.994 ± 0.026
CGTGAGTGGT	1.018 ± 0.0037
CGTGAGTTTG	0.9888 ± 0.0082
CGTGATAAAG	0.9911 ± 0.0089
CGTGATATTG	1.01 ± 0.017
CGTGATTAAG	1.09 ± 0.17
CGTGATTTGA	0.986 ± 0.014
CGTGCACATT	0.983 ± 0.012
CGTGCATCGA	1.0092 ± 0.00045
CGTGCCAGCA	0.983 ± 0.045
CGTGCCAGCT	0.9518 ± 0.00082

Sequence	switch fluorescence ratio
CGTGCCGGGG	0.968 ± 0.053
CGTGCGGGGA	1.02 ± 0.032
CGTGCGGGTT	0.993 ± 0.047
CGTGCTAGTA	1.02 ± 0.058
CGTGCTGTT	1.01 ± 0.027
CGTGGAGGGT	0.9966 ± 0.0042
CGTGGATGTG	0.9885 ± 0.0027
CGTGGATGTT	0.9831 ± 0.0034
CGTGGCAAAG	1.02 ± 0.015
CGTGGCAGCA	1.0326 ± 3.9e-05
CGTGGCGCGT	1.05 ± 0.11
CGTGGCTATG	0.959 ± 0.019
CGTGGCTGGT	0.996 ± 0.013
CGTGGGGATA	1.031 ± 0.009
CGTGGGGGAC	0.997 ± 0.033
CGTGGGGGCA	0.9538 ± 0.0076
CGTGGGGTGT	1.01 ± 0.039
CGTGGGTCCA	1.024 ± 0.01
CGTGGGTGTT	0.946 ± 0.015
CGTGGTATGG	0.9976 ± 0.003
CGTGGTTTTT	1.01 ± 0.023
CGTGTACATC	1.01 ± 0.011
CGTGTACGGA	1.022 ± 0.0021
CGTGTATTTG	0.989 ± 0.011
CGTGTCAGCA	0.9937 ± 0.0055

Sequence	switch fluorescence ratio
CGTGTCGCCT	1.01 ± 0.015
CGTGTCGCGC	1.002 ± 0.01
CGTGTGAGAC	1.02 ± 0.014
CGTGTGAGGG	1.01 ± 0.015
CGTGTGAGGT	0.9972 ± 0.008
CGTGTGGCGA	1.06 ± 0.015
CGTGTGGGGG	1.02 ± 0.031
CGTGTGGTAG	0.992 ± 0.044
CGTGTGTGCA	1.004 ± 0.0024
CGTGTGTTTT	1 ± 0.0068
CGTGTTCGCT	0.9921 ± 0.0016
CGTGTTGAGG	0.991 ± 0.023
CGTGTTGGGG	0.971 ± 0.039
CGTGTTTGTT	0.988 ± 0.022
CGTTAAACTT	1.01 ± 0.012
CGTTAAGGGA	0.978 ± 0.021
CGTTACGCTG	0.979 ± 0.026
CGTTACTATA	1.08 ± 0.011
CGTTAGAGAG	0.99 ± 0.03
CGTTAGGGAG	0.95456 ± 0.00035
CGTTAGGGGA	0.999 ± 0.011
CGTTATAAAT	0.996 ± 0.029
CGTTATATCC	1.06 ± 0.021
CGTTATGGGA	0.976 ± 0.022
CGTTCAATGT	1.026 ± 0.0085

Sequence	switch fluorescence ratio
CGTTCAGCGG	0.996 ± 0.023
CGTTCATATG	0.963 ± 0.023
CGTTCCGGGG	1.03 ± 0.036
CGTTCCGGTC	1.06 ± 0.054
CGTTCGTGTG	1.017 ± 0.0044
CGTTCTATTG	1.02 ± 0.086
CGTTGAGGGT	0.99 ± 0.014
CGTTGATTAG	0.984 ± 0.014
CGTTGCATGC	1.39 ± 0.099
CGTTGCCGCT	0.934 ± 0.054
CGTTGCGCGT	0.993 ± 0.037
CGTTGCGGTA	1.04 ± 0.026
CGTTGCTTTT	1.01 ± 0.026
CGTTGGCGAG	1.01 ± 0.031
CGTTGGGCTG	1.02 ± 0.038
CGTTGGGGGG	0.999 ± 0.03
CGTTGGTACG	1 ± 0.022
CGTTGTAAGG	1.01 ± 0.027
CGTTGTCGTT	1.01 ± 0.055
CGTTGTTCGC	1.02 ± 0.028
CGTTTAAAAG	0.975 ± 0.022
CGTTTAGACG	1.09 ± 0.095
CGTTTATCTG	0.972 ± 0.025
CGTTTCAGGT	0.994 ± 0.036
CGTTTCATCT	0.987 ± 0.065
